Reference: the supplement of paper PMC11136658

System: peptide library, one residue held at a place counted from the Y acceptor
Test: relative phosphorylation of the sub-library (ratio to the mean residue at this position); higher = residue favoured
Method in brief: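 Within 384-well plates, purified recombinant kinases phosphorylated biotinylated Tyr-centred peptide library mixtures over 90 min using 50 μM ATP spiked with γ-32P-ATP; each mixture fixed one residue at one position from −5 to +5. Streptavidin membrane capture, rinsing, phosphorimaging and ImageQuant gave the intensities. These were normalized per position to the sum of the 18 randomized residues (16 for the Ser/Thr-free library) and multiplied by that number.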

BMPR2, construct: aa172-end, human, sequence (Q13873 172-1038, looked up): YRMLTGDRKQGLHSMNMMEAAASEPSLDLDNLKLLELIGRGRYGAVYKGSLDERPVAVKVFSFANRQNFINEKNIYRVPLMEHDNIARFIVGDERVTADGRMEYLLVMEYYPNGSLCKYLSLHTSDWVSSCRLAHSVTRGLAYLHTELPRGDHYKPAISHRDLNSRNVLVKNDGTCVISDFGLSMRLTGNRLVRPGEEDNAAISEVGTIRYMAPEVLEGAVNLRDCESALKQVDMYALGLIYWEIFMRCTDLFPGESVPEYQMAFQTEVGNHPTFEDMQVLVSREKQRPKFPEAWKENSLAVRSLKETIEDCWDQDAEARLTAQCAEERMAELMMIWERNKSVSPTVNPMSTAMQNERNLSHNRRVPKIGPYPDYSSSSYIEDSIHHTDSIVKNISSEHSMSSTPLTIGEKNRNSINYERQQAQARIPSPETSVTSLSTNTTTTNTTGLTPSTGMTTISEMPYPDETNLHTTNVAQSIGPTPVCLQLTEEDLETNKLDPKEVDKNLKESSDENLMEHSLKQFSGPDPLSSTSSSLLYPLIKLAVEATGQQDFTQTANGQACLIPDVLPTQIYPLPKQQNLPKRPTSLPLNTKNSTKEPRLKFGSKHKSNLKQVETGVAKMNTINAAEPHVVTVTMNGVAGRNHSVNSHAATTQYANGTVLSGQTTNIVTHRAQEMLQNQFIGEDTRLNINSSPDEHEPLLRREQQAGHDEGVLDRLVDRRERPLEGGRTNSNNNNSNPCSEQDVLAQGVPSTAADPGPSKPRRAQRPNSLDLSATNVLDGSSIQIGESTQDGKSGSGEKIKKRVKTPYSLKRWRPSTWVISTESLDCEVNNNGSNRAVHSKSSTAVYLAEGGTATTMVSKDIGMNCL

BMPR2, construct: aa172-end, human (from UniProt Q13873)
relative phosphorylation
Conditions | at +1 | at +2 | at +3 | at +4 | at +5 | at -1 | at -2 | at -3 | at -4 | at -5
A fixed | 0.886 | 0.936 | 0.914 | 0.977 | 0.907 | 0.88 | 0.948 | 0.948 | 0.967 | 0.964
D fixed | 0.835 | 1.34 | 1.18 | 1.05 | 1.04 | 2.25 | 1.25 | 1.33 | 1.31 | 1.29
E fixed | 0.785 | 1.44 | 1.13 | 1.07 | 1.04 | 1.44 | 1.08 | 1.27 | 1.16 | 1.1
F fixed | 0.959 | 0.852 | 0.953 | 0.96 | 0.947 | 0.755 | 1.09 | 0.989 | 1.13 | 1.06
G fixed | 0.927 | 0.923 | 1.03 | 1.04 | 1.07 | 1.46 | 1.03 | 1.02 | 0.965 | 0.987
H fixed | 1.03 | 0.986 | 0.995 | 1.08 | 1.06 | 0.796 | 1.09 | 1.1 | 1.14 | 1.05
I fixed | 1.02 | 0.969 | 1.02 | 1 | 0.961 | 0.767 | 0.754 | 0.855 | 0.861 | 0.928
K fixed | 1.11 | 0.898 | 0.966 | 1.04 | 1.06 | 0.708 | 1.06 | 0.872 | 0.875 | 0.942
L fixed | 1.09 | 0.864 | 0.827 | 0.834 | 0.842 | 0.832 | 1.05 | 0.852 | 0.896 | 0.863
M fixed | 1.06 | 0.913 | 0.906 | 0.917 | 0.874 | 0.841 | 0.97 | 0.881 | 0.901 | 0.892
N fixed | 0.897 | 1.08 | 1 | 1 | 0.99 | 1.08 | 1 | 1.1 | 0.933 | 1.05
P fixed | 1.23 | 0.981 | 1.05 | 1.07 | 1.15 | 0.724 | 0.825 | 0.86 | 0.905 | 0.928
Q fixed | 0.917 | 0.994 | 0.979 | 0.957 | 0.972 | 0.92 | 1.01 | 1.01 | 0.987 | 1.03
R fixed | 1.2 | 0.99 | 1.14 | 1.1 | 1.23 | 0.92 | 1.05 | 1.04 | 0.92 | 0.975
V fixed | 1.26 | 1.03 | 1.04 | 0.972 | 0.979 | 0.781 | 0.732 | 0.918 | 0.911 | 0.906
W fixed | 0.808 | 0.789 | 0.875 | 0.919 | 0.88 | 0.843 | 1.06 | 0.963 | 1.14 | 1.03
pThr fixed | 2.07 | 1.7 | 1.39 | 1.4 | 1.12 | 3.29 | 1.35 | 1.22 | 1.22 | 1.27
pTyr fixed | 1.48 | 2.01 | 1.17 | 1.27 | 1.05 | 2.54 | 1.64 | 2.3 | 2 | 1.47
